Experimental data taken from paper PMC8448962 (Neuron, 2021).

Molecular target: the molecule itself
Experiment: crystal structure

B1: Human TRAAK A198E, crystallisation construct (C-terminally truncated, N104Q/N108Q) (domain or fragment)
chain: MTTAPQEPPARPLQAGSGAGPAPGRAMRSTTLLALLALVLLYLVSGALVFRALEQPHEQQAQRELGEVREKFLRAHPCVSDQELGLLIKEVADALGGGADPETQSTSQSSHSAWDLGSAFFFSGTIITTIGYGNVALRTDAGRLFCIFYALVGIPLFGILLAGVGDRLGSSLRHGIGHIEAIFLKWHVPPELVRVLSEMLFLLIGCLLFVLTPTFVFCYMEDWSKLEAIYFVIVTLTTVGFGDYVAGADPRQDSPAYQPLVWFWILLGLAYFASVLTTIGNWLRVVSRRTRAEMGGLTAQSNSLEVLFQ
stoichiometry N: 2
